In the nanobody polyreactivity screen of Harvey et al. (2022):

Assay: yeast display, Sf9 membrane polyspecificity reagent, FACS + sequencing; frameworks hold sequencing errors
Summary of the method: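 Nanobodies came from a synthetic yeast display library in Saccharomyces cerevisiae BJ5465, induced with galactose for 36–48 hours and stained for 1 hour at 4 °C with 10% biotinylated, detergent-solubilized Sf9 membrane reagent. Cells were enriched on streptavidin microbeads and then FACS-sorted, with low and high (top ~1%) gates set on anti-HA fluorescence for expression and streptavidin fluorescence for reagent binding. Each polyreactivity label reflects the gate a clone came from. Genes were amplified by colony PCR, sequenced by MiSeq 2 × 250 and filtered by CDR length.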

Sequence | polyreactivity (PSR sort gate)
QVQLVESGGGLVQAGGSLRLSCAASGSIIRSYTMGWYRQAPGKERELVASISRTGGSTHYADSVKGRFTISRDNAKNTVYLQMNSLKPEDTAVYYCNADTRRNRLMDYWGQGTQVTVSS | high polyreactivity
QVQLVESGGGLVQAGGSLRLSCAASGYTFFYYAMGWSRQAPGKERELVAIDLNGGSTYYADSVKGRFTISRDNAKNTVYLQMNSLKPEDTAVSSCAATRPWYGDVGYLEDYWGQGTQVTVSS | low polyreactivity
QVQLVESGVGIVQAGGSLRLSCAASGRIFARNAMVWYRHAPGKERELVATIRVGGGSTYYADSVKGRFTISRDNAKNTVYLQMNSLKPEDTAVYYCAVRQLYSYPGDRRGYYWGQGTQVTVSS | low polyreactivity
QVQLVESGGGLVQAGGSLRLICAASGSTLAYNAMGWYRQAPGKERELVAGIRGSGGSTYYADSVKGRFTISRDNAKNTVYLQMNSLKPEDTAVYDCAADGLSNVRQMDYWGQGTQVTVSS | low polyreactivity
QVQLVESGGGLVQAGGSLRLSCAASGFTFDFYVMGWYRQAPGKERELVAAISWDGGTTYYADSVKGRFTISRDNAKNTVYLQMNSLKPEDTAVYYCAADDWVYVPTGAWYLYEYWGQGTQVTVSS | high polyreactivity
QLQLVESGGGLVQAGGSLRLSCAASGSIFADYAMGWYRQAPGKEREFVAAITRSGTSTYYADSVKGRFTISRDNAKNTVYFQMNSLKPEDTAGYYCAKTEVLLYLYTLDYWGQGTQVTVSS | low polyreactivity
QVQLVESGGGLVQAGGSLRLSCAASGFIFRGYAMGWYRQAPGKERELVAVISRSGTSTYYADSVKGRFTISRDNAKNTVYLQMNSLKPEDTAVYYCAKEVWPRYIRQAYLSGYESWGQGTQVTVSS | high polyreactivity
QVQLVESGGGLVQAGGSLRLSCAASGSTLRGYAMGWYRQAPGEERELVAAISRRGSGTYYADSVKGRFTISRDNAKHTVYLQMNSLKPEETAVYYCNAVNGDYEFGYWGQGTQVTVSS | high polyreactivity
QVQHVESGGGLVQAGGSLRLSCAASGSIFRIYAMGWYRQAPGKERELVAAISVSTGSRTYYADSVKGRFTISRDNAKNTVYLQMNSLKPEDTAVYYCNAESYYDYNYWGQGTQVTVSS | low polyreactivity
QVQLVESGGGLVQAGGSLRLSCAASGRIFYFNAMGWYRQAPGQERELVADISSGGRTNYADSVKGRFTISRDNAKNTVYLQMNSLKPEDTAVYYCNAEPYTSSGGYRGYDFDSWGQGTQVTVSS | low polyreactivity
QVQLVESGGGLVQAGGSLRLSCAASGSIFHANAMGWYRQAPGKERELVAAITRSGRSTYYADSVKGRFTISRDNAKNTVYLQMNSLKPEDTAVYYCAARYYAGGLSSYDYWGQGTQVTVSS | high polyreactivity
QVQHVESGGGLVQAGGSLRLSCAASGRIFAYNAMGWYRQAPGKERELVADISSGGNTYYADSVKGRFTISRDNAKNTVYLQMNSLKPEDTAVYYCAADIALYTHYHRIFDYWGQGTQVTVSS | low polyreactivity
PVQLVESGGGLVQAGGSLRLICAASGSIFYQYTMGWYRQAPGKERELVATISWSDVSTYYADSVKGRFTISRENAQNPVYLQMNSLKPEDTSVYYCAALYSGWDRYYGYDYWGQGTQVTVSS | low polyreactivity
QVQLVETGVGLVQAGGSLRLSCAASGRIFLVYAMGWYRQAPGKERELVAAISWRGGRTYYADSVKGRFTISRDNAKNTVYLQMNSLIPEDTAVYYCAAASKYSQFEYDYWGQGTQVTVSS | high polyreactivity
QVQLVESGGGLVQAGGSLRLSCAASGFTFWKYAMGWYRQAPGKERELVATITSSGDNTYYADSVKGRFTISRDNAKNNVYLQMNSLKPEDTAVYYCAADNGYHYNFDYWGQGTQVTVSS | low polyreactivity
QVQLVESGGGLVQAGGSLRLSCAASGSTFPYNAMGWYRQAPGKERELVAAITWRAGRTYYADSVKGRFTISRDNAKITVYLHMNSLKAEDTAVYYCAKSYQRGVNHYEYWGQGTQVTVSS | high polyreactivity

Sequence | polyreactivity (PSR sort gate)
QVQLVESGGCLVQAGGSLRLSCAASGSIFSKNTMGWSRQAPGKDRELVATISIGGGSTYYADSVKGRFTISRDNAKNTVYLQMNSLKPADSAVYYCNASLRRPFSLYYYWGQGTQVTVSS | high polyreactivity
QVQLEESGGGLVQAGGSHRLSCAASGFIFDRNAMGWYRQAPGKERELVAAITRSGGNTYYADSVKGRFTISRDNAKNTVYLQMNSLKPEDTAVYYCAKDVIQWSVSASYRFGYWGQGTQVTVSS | high polyreactivity
QVQLVESGGGLVQAGGSLRLSCAASGSTFWEYAMGWYRQAPGKERELVAAITWSTGSTYYADSVKGRFTISRDNAKNTVYLQMNSLKPEDTAVYYCNVDWGYFYTTQGFDYWGQGTQVTVSS | high polyreactivity
QVQLVESGGGLVQAGGSLRLSCAASGSTFGFNAMGWYRQAPGKERELVASITSGDSTYYADSVKGRFTISRDNAKNTVYLQMNSLKPEDTAVYYCAKVGGGGQAGDNPILSDYWGQGTQVTVSS | low polyreactivity
QVQLVDSGGGLVQAGGSLRLSCAASGRTFWYYTMGWYRQAPGKEREFVAAIRGSGTSTYYADSVKARFTISRDNEKNTVYLQMNSLKPEDTAVYYCAAESPVYHLVTYDYWGQGTQVTVSS | high polyreactivity
QVQLVESGGGLVQEGGSLRLSCAASGSIFDDYAMGWYRQAPGKEWELVAAITSGGSTYYADSVKGRFTISRDNAKNTVYLQMNSLKPEDTAVYYRATRYHWSSSFAPVGAYGYWGHGTQVTVSS | low polyreactivity
QVQLVESGGGLVQAGGSLRLSCAASGPTFPVKSMGWYRQAPGKERELVAAISWRDGRTYYADSVKGRFTISRDNAKNTVYLQMNSLKPEDTAVYYCNVVKRRSDWGMDYWGQGTQVTVSS | high polyreactivity
QVQLVESGGGLVQAGGSLRLSCAASGRTSGFNTMGWYRQAPGKERELVAAISFSGGSTYYADSVKGRFTISRDNAKNTVYLQMNSLKPEDTAVYYCNALFRYLYRSGDYWGQGTQVTVSS | low polyreactivity
QVQLVESGGGLVQAGGSLRLSCAASGSIFGIYAMGWYRQAPGKERELVAAISSRAGSTNYADSVKGRFTISRDNAKNTVYLKMNSLKPEDTAVYDCNAKFSPPRRWPLRDYWGQGTQVTVSS | high polyreactivity
QVQLVESGGGLVQAGGSLRLSCAASGRTFDRNAMGWYRQAPGKERELVARITIDGSTNYADSVKGRFTISRDNAKNTVYLQMNSLKPEDTAVYYCATDQLSLSWYFRPYDYGYWGQGTQVTVSS | high polyreactivity
QVQLVESGGGLVQAGGSLRLSCAASGSNFTSNGMGWYRQAPGKERELVAAITRRGGRTYYADSVKGRFTISRDNAKNTVYLQMNSLKPEDTAVYYCAAKSTSLYDYWGQGTQVTVSS | low polyreactivity
QVQLVESGGGLVQAGGSLRLSCAASGSTFLLNAMGWYRPAPGKERELVAAITWTGGSTYYADSVKGRFTISRDNAKNTVYLQMNILKPEDTAVYYCAAEHYEYWRELVTSEYDYWGKGTQVTVSS | low polyreactivity
QVQLVESGGGLVQAGGSLRLSCAASGFIFAYNAMGWYRQAPGKERELVAAISSRGSRTYYADSVKGRFTISRDKAKNTVYLQMNSLKPEDTAVYYCAARYSRGGFGYWGQGTQVTVSS | high polyreactivity
QVQLVESGGGLVQAGGSLRLSCAASGFTFRGYAMGWYRQAPGKERELVASISYRGDSTYYADSVKGRFTISRDNAKNTVYLQMNSLKPADTAGYYCNKLLASYYLPGFDYWGQGTQVTVSS | low polyreactivity
QVQLVASGGGLVQAGGSLRLSCAASGTTLYYYAKGWYRQAPGKEREMGAYISSSGDRTYYADSVNGRFTISRDNAKNTVDLQMNSLKPEDTAVYYCNAYLYVSGLDYATYSLGYWGQGTQVTVSS | low polyreactivity
